Reference: IntAct's records for PubMed 23333653

Molecular target: T1, cata_human CAT (UniProt P04040)
T1 sequence: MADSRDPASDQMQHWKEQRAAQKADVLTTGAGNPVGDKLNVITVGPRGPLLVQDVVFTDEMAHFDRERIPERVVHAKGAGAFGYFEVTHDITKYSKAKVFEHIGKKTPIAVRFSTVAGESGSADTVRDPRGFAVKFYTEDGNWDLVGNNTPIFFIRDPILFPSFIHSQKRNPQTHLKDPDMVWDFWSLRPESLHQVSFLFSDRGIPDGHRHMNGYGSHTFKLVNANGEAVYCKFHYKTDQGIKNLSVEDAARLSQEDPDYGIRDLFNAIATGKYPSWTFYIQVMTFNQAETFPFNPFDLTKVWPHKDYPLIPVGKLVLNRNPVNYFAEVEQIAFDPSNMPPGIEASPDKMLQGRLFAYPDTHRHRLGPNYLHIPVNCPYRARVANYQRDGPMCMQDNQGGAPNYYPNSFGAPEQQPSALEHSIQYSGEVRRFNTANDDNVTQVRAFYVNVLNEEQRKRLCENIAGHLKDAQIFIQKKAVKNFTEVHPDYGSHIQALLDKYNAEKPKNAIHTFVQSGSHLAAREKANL

Ras-related protein Rab-14 (Homo sapiens) (from UniProt P61106) Q70N
effect of a mutation on the interaction: increasing interaction
